Article doi:10.1101/2021.04.12.439291 (bioRxiv, 2021)

B1: Ubc2 (yeast) (enzyme, Saccharomyces cerevisiae, UniProt P06104 1-172, looked up)
chain: MSTPARRRLMRDFKRMKEDAPPGVSASPLPDNVMVWNAMIIGPADTPYEDGTFRLLLEFDEEYPNKPPHVKFLSEMFHPNVYANGEICLDILQNRWTPTYDVASILTSIQSLFNDPNPASPANVEAATLFKDHKSQYVKRVKETVEKSWEDDMDDMDDDDDDDDDDDDDEAD

Assays:
[1] = target: Ubr1 (yeast, FLAG-tagged) (Saccharomyces cerevisiae, UniProt P19812 1-1950); experiment: cryo-EM structure
Ubc2 (yeast) = target: B1; experiment: ITC

Chain of Ubr1 (yeast, FLAG-tagged) (P19812 whole entry): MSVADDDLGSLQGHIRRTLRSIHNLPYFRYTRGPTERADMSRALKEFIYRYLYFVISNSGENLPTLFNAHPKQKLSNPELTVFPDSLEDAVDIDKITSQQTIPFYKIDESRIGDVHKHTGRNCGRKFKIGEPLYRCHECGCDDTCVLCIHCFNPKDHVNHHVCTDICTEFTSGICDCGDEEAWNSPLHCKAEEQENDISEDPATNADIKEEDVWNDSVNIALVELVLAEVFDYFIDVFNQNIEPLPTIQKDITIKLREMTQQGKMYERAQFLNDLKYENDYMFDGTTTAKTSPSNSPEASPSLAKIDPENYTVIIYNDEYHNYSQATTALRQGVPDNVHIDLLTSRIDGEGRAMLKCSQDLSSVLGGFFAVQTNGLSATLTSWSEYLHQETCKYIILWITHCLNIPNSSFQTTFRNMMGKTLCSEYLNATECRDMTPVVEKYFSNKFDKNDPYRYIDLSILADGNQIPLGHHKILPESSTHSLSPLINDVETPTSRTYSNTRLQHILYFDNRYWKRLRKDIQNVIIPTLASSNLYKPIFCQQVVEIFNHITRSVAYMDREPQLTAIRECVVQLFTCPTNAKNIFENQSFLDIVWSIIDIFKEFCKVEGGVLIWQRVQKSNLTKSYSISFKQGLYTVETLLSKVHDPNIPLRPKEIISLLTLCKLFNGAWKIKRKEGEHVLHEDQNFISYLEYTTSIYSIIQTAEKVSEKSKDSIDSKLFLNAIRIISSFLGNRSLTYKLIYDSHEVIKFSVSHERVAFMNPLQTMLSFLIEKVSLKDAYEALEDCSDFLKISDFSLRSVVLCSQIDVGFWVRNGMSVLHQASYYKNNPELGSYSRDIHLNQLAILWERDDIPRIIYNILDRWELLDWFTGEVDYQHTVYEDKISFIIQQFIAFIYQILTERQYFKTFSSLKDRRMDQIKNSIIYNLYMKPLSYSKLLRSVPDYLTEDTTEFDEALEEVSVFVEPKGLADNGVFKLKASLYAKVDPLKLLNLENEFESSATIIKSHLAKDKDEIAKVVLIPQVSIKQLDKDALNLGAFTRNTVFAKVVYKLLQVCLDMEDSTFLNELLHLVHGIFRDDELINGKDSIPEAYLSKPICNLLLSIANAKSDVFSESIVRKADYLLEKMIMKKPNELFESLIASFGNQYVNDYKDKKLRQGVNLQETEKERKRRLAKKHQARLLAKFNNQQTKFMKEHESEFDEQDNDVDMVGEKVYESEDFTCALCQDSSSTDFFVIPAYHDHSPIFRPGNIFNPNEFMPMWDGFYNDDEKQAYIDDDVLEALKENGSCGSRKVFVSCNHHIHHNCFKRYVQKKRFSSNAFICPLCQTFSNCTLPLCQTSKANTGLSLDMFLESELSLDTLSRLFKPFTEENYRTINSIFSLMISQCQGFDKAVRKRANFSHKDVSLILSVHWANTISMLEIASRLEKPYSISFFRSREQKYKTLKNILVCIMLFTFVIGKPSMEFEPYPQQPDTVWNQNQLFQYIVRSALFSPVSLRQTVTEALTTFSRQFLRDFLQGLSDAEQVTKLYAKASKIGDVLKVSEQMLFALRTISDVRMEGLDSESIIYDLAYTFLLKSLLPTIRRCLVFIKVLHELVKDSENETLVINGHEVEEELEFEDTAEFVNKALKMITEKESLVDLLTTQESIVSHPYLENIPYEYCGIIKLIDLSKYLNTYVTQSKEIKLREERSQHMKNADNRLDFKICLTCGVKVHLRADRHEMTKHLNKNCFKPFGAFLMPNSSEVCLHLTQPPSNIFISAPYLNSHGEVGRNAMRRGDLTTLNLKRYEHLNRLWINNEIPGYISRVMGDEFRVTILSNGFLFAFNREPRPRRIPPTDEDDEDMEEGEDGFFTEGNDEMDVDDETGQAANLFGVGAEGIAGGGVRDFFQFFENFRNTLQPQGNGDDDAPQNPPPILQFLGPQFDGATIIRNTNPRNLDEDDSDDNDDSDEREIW

Row | binding result [1] | Kd (Ubc2 (yeast)) | Binder
1 | binds |  | B1
2 |  | 143 ± 45 nM | KERKRRLAKKHQARLLAKFNNQQTKFMKEHESEFDE (peptide, UniProt P19812 1165-1200, looked up) [U2BR peptide (Ubr1 1165-1200)]
